From article PMC9669585

Target: mCherry-PEX5(TPR) (human) (UniProt P50542)
Assay: FRET or BRET; flowFRET competition in living pex5-/- MEF; mCherry-PEX5(TPR) as acceptor, EGFP-PTS1(SCP2) as donor, Cerulean-tagged protein as competitor; apparent KD1^app and KD2^app by fitting, plotted as Log10(KD2^app)/Log10(KD1^app)

Log10(KD2^app)/Log10(KD1^app) against the donor EGFP-PTS1(SCP2): 1
Substance: Cerulean-PTS1(SCP2) (peptide)
